Results from paper doi:10.1101/2023.06.19.545549.

Target: N2β1α1C1, purified recombinant (the MxDnaK1 chimera with the MxDnaK2 NBD) (Myxococcus xanthus DK1622)
Experiment: SDS-PAGE of the purified protein

Substance “N2β1α1C1, purified recombinant (the MxDnaK1 chimera with the MxDnaK2 NBD)” has a stoichiometry N of 2.
